Source: publication PMC6461199

Biological target: TDP-43 N-RRM1-2 (UniProt Q13148 1-269)
Test: BLI

Sequence of TDP-43 N-RRM1-2 (Q13148 1-269): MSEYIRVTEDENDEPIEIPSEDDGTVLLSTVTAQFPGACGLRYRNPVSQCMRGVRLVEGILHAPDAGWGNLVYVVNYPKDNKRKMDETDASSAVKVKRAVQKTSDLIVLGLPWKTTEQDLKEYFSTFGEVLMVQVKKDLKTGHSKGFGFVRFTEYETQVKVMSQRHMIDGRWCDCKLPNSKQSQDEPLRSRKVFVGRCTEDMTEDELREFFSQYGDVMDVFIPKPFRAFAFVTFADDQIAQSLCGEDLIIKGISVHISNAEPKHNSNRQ

Binder | Kd [nM]
UUAUACCUACCA (ssRNA) [NegRNA12S1] | 1650
GUGUGAAUGAAUGUGUGAAUGAAUGUGUGAAUGAAU (ssRNA) [RNA36] | 22
AUUCAUUCACAC (ssRNA) [NegRNA12] | 1900
GUGUGAAUGAAU (ssRNA) [RNA12] | 6.3
AAGUGUGGUAUA (ssRNA) [RNA12S2] | 75
CUCACAUUAUCA (ssRNA) [NegRNA12S2] | 1340
UAGAGUAUGAUG (ssRNA) [RNA12S1] | 60
